Results reported in the supplement of paper PMC6757056.
± gives the standard deviation of the averaged measurements.

B1: library; a variant is named by its letters at N, in order (parent)
chain: GCUGUCACCGGUGCUUGGUACGUUAUAUUCAGCCGGUCUGAUGAGUCUNNNNNNAGACGAAACAGC

What was measured:
[1] = variants of: B1; experiment: normalized RNA/DNA level without ligand (relative to sTRSVctl = 100) (log10 (% of sTRSVctl)); HEK293T overexpressing SLC46A1; higher = less ribozyme self-cleavage, higher mRNA level; conditions: without (6R,S)-folinic acid; ligand present: no
In short: (§1)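 Library plasmids encoding reporter-linked ribozyme switches (mCherry, or eGFP for some folinic acid experiments) were transfected into HEK293T at 4 µg per 6-well well. Ligand, when used, was added 1 h before transfection. Total RNA was extracted with EDTA 72 h later, then reverse-transcribed, amplified, barcoded and sequenced. RNA level was RNA reads over DNA reads, divided by a spiked-in non-cleaving control (or the top 25 sequences), ×100, log10; only sequences with ≥100 DNA reads were kept.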

[2] = variants of: B1; experiment: normalized RNA/DNA level with ligand (relative to sTRSVctl = 100) (log10 (% of sTRSVctl)); HEK293T overexpressing SLC46A1; ligand concentration (+) RNA-Seq: 6 mM; higher = less ribozyme self-cleavage, higher mRNA level; conditions: with (6R,S)-folinic acid; ligand present: yes
In short: as §1

Row | Variant | normalized RNA/DNA level without ligand (log10) [1] | normalized RNA/DNA level with ligand (log10) [2]
1 | AUACUA | 1.97 ± 0.026 | 1.99 ± 0.025
2 | AUACUU | 2.018 ± 0.013 | 2.01 ± 0.043
3 | AUACUG | 1.939 ± 0.0046 | 2.01 ± 0.03
4 | UUACCG | 1.969 ± 0.0046 | 2 ± 0.04
5 | UUACCA | 2.03 ± 0.0034 | 2.028 ± 0.016
6 | UUACCU | 2.061 ± 0.0025 | 2.05 ± 0.04
7 | CGUGGG | 1.8506 ± 0.0006 | 1.98 ± 0.036
8 | CGUGGC | 2.02 ± 0.027 | 2 ± 0.073
9 | CGUGGU | 1.998 ± 0.0064 | 1.99 ± 0.029
10 | GUACCC | 2.02 ± 0.03 | 2.03 ± 0.06
11 | GUACCA | 2.0976 ± 0.0018 | 2.038 ± 0.013
12 | GUACCU | 2.086 ± 0.0075 | 2.06 ± 0.051
13 | GUACCG | 2.088 ± 0.0044 | 2.06 ± 0.014
14 | GGUUUU | 2 ± 0.021 | 1.99 ± 0.033
15 | GGUUUC | 2.021 ± 0.011 | 1.9966 ± 0.0012
16 | GGUUUA | 2.009 ± 0.018 | 1.98 ± 0.03
17 | CUAAUC | 2.072 ± 0.014 | 2.007 ± 0.013
18 | CUAAUU | 2.011 ± 0.01 | 2.02 ± 0.061
19 | CUAAUG | 2.026 ± 0.013 | 2.02 ± 0.038
20 | UGUCGA | 1.904 ± 0.0056 | 1.994 ± 0.013
21 | UGUCGC | 1.966 ± 0.0063 | 2.024 ± 0.0019
22 | CGUUAC | 2.037 ± 0.015 | 2.01 ± 0.037
23 | CGUUAG | 2.009 ± 0.0098 | 2.031 ± 0.006

Row | Variant | normalized RNA/DNA level without ligand (log10) [1] | normalized RNA/DNA level with ligand (log10) [2]
24 | CGUUAU | 1.977 ± 0.0039 | 2.005 ± 0.016
25 | GGUCAC | 1.99 ± 0.031 | 2 ± 0.039
26 | GGUCAG | 2.039 ± 0.018 | 2.04 ± 0.035
27 | GGUCAU | 2.01 ± 0.025 | 2.01 ± 0.044
28 | GGUCAA | 1.99 ± 0.028 | 2 ± 0.024
29 | CUAACA | 2.026 ± 0.012 | 2.03 ± 0.043
30 | CUAACC | 2.007 ± 0.0068 | 1.98 ± 0.073
31 | CUAACU | 2.007 ± 0.0098 | 2 ± 0.035
32 | CUAACG | 2.02 ± 0.018 | 1.99 ± 0.053
33 | AGUUAU | 1.979 ± 0.0072 | 2.02 ± 0.018
34 | AGUUAA | 1.9569 ± 0.00052 | 1.99 ± 0.024
35 | AGUUAG | 1.908 ± 0.017 | 2 ± 0.038
36 | AGUUAC | 2.007 ± 0.0061 | 1.992 ± 0.013
37 | AGUGGG | 1.921 ± 0.019 | 2.04 ± 0.035
38 | AGUGGC | 2.042 ± 0.01 | 2.04 ± 0.06
39 | AGUGGU | 1.95 ± 0.013 | 2.02 ± 0.049
40 | UUACGC | 1.995 ± 0.011 | 1.995 ± 0.018
41 | UUACGA | 2.013 ± 0.011 | 2.04 ± 0.035
42 | UUACGG | 2.018 ± 0.0069 | 2.049 ± 0.016
43 | AUACAC | 2.01 ± 0.026 | 2.04 ± 0.039
44 | CUACGG | 2.102 ± 0.0025 | 2.092 ± 0.0045
45 | CUACGC | 2.025 ± 0.013 | 2.028 ± 0.0021
46 | CUACGA | 2.045 ± 0.012 | 2.05 ± 0.028

Row | Variant | normalized RNA/DNA level without ligand (log10) [1] | normalized RNA/DNA level with ligand (log10) [2]
47 | CUACGU | 2 ± 0.01 | 1.99 ± 0.035
48 | UGUUGU | 1.9049 ± 9.7e-05 | 2 ± 0.027
49 | UGUUGC | 1.98 ± 0.024 | 2.059 ± 0.0084
50 | CUACAC | 2.05 ± 0.011 | 2.023 ± 0.016
51 | CUACAG | 1.977 ± 0.011 | 2.03 ± 0.029
52 | CUACAA | 1.98 ± 0.0052 | 1.99 ± 0.024
53 | CUACAU | 1.974 ± 0.0066 | 2.02 ± 0.039
54 | GUAAUU | 2.013 ± 0.0027 | 1.99 ± 0.024
55 | CUACCG | 2.06 ± 0.029 | 2.05 ± 0.025
56 | CUACCA | 2.0575 ± 0.0015 | 2.0336 ± 0.0013
57 | CUACCC | 2.045 ± 0.011 | 2 ± 0.047
58 | CUACCU | 2.044 ± 0.02 | 2.01 ± 0.026
59 | CGUCUG | 2.008 ± 0.01 | 2.01 ± 0.018
60 | CGUCUU | 2.021 ± 0.0084 | 2 ± 0.039
61 | AGUUUA | 1.9996 ± 0.00042 | 2.03 ± 0.037
62 | AGUUUU | 2.01 ± 0.027 | 1.98 ± 0.02
63 | AGUUUG | 1.958 ± 0.0094 | 2.023 ± 0.017
64 | AGUUUC | 2.02 ± 0.024 | 2 ± 0.025
65 | UUACAG | 1.898 ± 0.017 | 1.99 ± 0.027
66 | UUACAC | 2.003 ± 0.0021 | 1.99 ± 0.038
67 | UUACAU | 1.96 ± 0.025 | 1.98 ± 0.028
68 | UUACAA | 1.963 ± 0.0022 | 2.01 ± 0.028
69 | GGUGGC | 1.98 ± 0.023 | 2.02 ± 0.037

Row | Variant | normalized RNA/DNA level without ligand (log10) [1] | normalized RNA/DNA level with ligand (log10) [2]
70 | GGUGGU | 2.053 ± 0.016 | 2.03 ± 0.031
71 | GGUGGG | 2.034 ± 0.014 | 2.059 ± 0.017
72 | AGUGUG | 1.78 ± 0.018 | 1.97 ± 0.01
73 | AGUGUU | 2.026 ± 0.011 | 2.04 ± 0.027
74 | AGUGUC | 2.054 ± 0.0091 | 2 ± 0.046
75 | AGUGUA | 1.942 ± 0.007 | 2 ± 0.05
76 | UGUUCU | 2.031 ± 0.0043 | 2.08 ± 0.035
77 | UGUUCA | 1.991 ± 0.012 | 2.0188 ± 0.0011
78 | UGUUCG | 1.761 ± 0.017 | 1.96 ± 0.031
79 | UUACUA | 1.978 ± 0.0023 | 2.01 ± 0.034
80 | UUACUC | 2.048 ± 0.0074 | 2.03 ± 0.027
81 | CUAAGA | 2.017 ± 0.0036 | 2 ± 0.04
82 | CUAAGG | 1.96 ± 0.0065 | 2.002 ± 0.014
83 | CUAAGC | 2.02 ± 0.026 | 2.024 ± 0.018
84 | CGUUUU | 2.032 ± 0.0078 | 2.037 ± 0.0095
85 | CGUUUA | 1.99 ± 0.03 | 2.01 ± 0.034
86 | CGUUUC | 2.06 ± 0.047 | 2.06 ± 0.06
87 | CGUUUG | 2 ± 0.029 | 1.986 ± 0.0034
88 | CGUCGU | 2.04 ± 0.032 | 2 ± 0.03
89 | CGUCGA | 2.012 ± 0.0023 | 2.019 ± 0.019
90 | CGUCGG | 2.01 ± 0.026 | 2.08 ± 0.049
91 | CGUCGC | 2.06 ± 0.037 | 2 ± 0.092
92 | UGUCAA | 1.968 ± 0.018 | 2.002 ± 0.014

Row | Variant | normalized RNA/DNA level without ligand (log10) [1] | normalized RNA/DNA level with ligand (log10) [2]
93 | UGUCAU | 1.955 ± 0.0075 | 2 ± 0.034
94 | UGUCAG | 1.771 ± 0.011 | 2 ± 0.026
95 | UGUCAC | 2.03 ± 0.015 | 2.01 ± 0.021
96 | CGUGUC | 2.0808 ± 0.0006 | 2.07 ± 0.043
97 | CGUGUG | 1.972 ± 0.015 | 1.99 ± 0.032
98 | CGUGUA | 1.981 ± 0.009 | 2 ± 0.028
99 | CGUGUU | 2.001 ± 0.016 | 2.03 ± 0.057
100 | UUAAUU | 2.011 ± 0.0048 | 2.01 ± 0.042
101 | UUAAUC | 2.0392 ± 0.0017 | 2.03 ± 0.034
102 | GGUUAC | 1.999 ± 0.0035 | 2 ± 0.038
103 | GGUUAA | 1.987 ± 0.0045 | 2.02 ± 0.031
104 | AUAAGA | 1.971 ± 0.0094 | 2.01 ± 0.034
105 | AGUCUU | 2.017 ± 0.0028 | 1.99 ± 0.028
106 | AGUCUA | 1.992 ± 0.0093 | 2.02 ± 0.05
107 | AGUCUG | 1.972 ± 0.0057 | 2.04 ± 0.048
108 | AGUCUC | 2.03 ± 0.016 | 2.02 ± 0.041
109 | GGUGCC | 2.029 ± 0.0081 | 2.03 ± 0.039
110 | GGUGCG | 2.0178 ± 0.0012 | 2.05 ± 0.035
111 | GUAAGA | 2.005 ± 0.0094 | 1.99 ± 0.02
112 | GUAAGU | 1.939 ± 0.0089 | 2.02 ± 0.06
113 | GGUCUU | 2.02 ± 0.027 | 2.01 ± 0.032
114 | GGUCUG | 2.081 ± 0.0057 | 2.06 ± 0.061
115 | GGUCUC | 2.0526 ± 0.0017 | 2.06 ± 0.026
